Measurements from publication PMC9159282, “Structural basis of human LRG1 recognition by Magacizumab, a humanized monoclonal antibody with therapeutic potential” (Acta Crystallographica. Section D, Structural Biology, 2022).

Biological target: T1, 15-amino-acid peptide corresponding to the epitope in LRG1 (human)
T1 construct: leucine-rich alpha-2-glycoprotein 1 (LRG1), human; Gln5Pep is Gln225 of LRG1
T1 chain: GNKLQVLGKDLLLPQ
Test: crystal structure; co-crystallization at MagaFab:peptide molar ratios of 1:2 and 1:5, MagaFab 12 mg/ml, 0.2 M NaCl, 0.1 M bis-Tris pH 5.5, 25%(w/v) PEG 3350; two Fab and two peptide molecules per asymmetric unit
Details: both partners purified

- binding result: binds
B1: Magacizumab Fab fragment (Fab, V domains shown)
VH: QVQLVQSGAEVKKPGSSVKVSCKASGYTFSGYWMNWVRQAPGQGLEWIGQIYPGDGDTNYNGKFKGRVTITADKSTSTAYMELSSLRSEDTAVYYCARSITTVVLDYWGQGTTVTVSS
VL: DIVLTQSPDSLAVSLGERATISCRASQSVSTSGYSFMHWYQQKPGQPPKLLIKYASNLESGVPARFSGSGSGTDFTLTISSLQPEDFATYYCQHSWEMPLTFGQGTKLEIK
notes: heavy (VH) chain of MagaFab is chain B (second copy: chain D) of the deposited structure PDB 7q4q; light (VL) chain of MagaFab is chain A (second copy: chain C) of the deposited structure PDB 7q4q; Fab of a humanized IgG4 derived from the mouse monoclonal antibody 15C4; Observed mass of the Fab 47 461 Da, computed 47 412 Da; also called MagaFab; source: Magacizumab: CHO cell-based expression …
